Test results reported in PMC8385062, “Deciphering ion transport and ATPase coupling in the intersubunit tunnel of KdpFABC” (Nature Communications, 2021).

Substrate: Nc1ncnc2c1ncn2[C@@H]1O[C@H](COP(=O)(O)OP(=O)(O)OP(=O)(O)O)[C@@H](O)[C@H]1O
Assay: purified protein
Conditions: 1 mM KCl, 37 °C

B1: KdpFABC (nucleotide / vanadate rows, site in KdpB) (Escherichia coli K-12) (protein)
chain: MSRKQLALFEPTLVVQALKEAVKKLNPQAQWRNPVMFIVWIGSLLTTCISIAMASGAMPGNALFSAAISGWLWITVLFANFAEALAEGRSKAQANSLKGVKKTAFARKLREPKYGAAADKVPADQLRKGDIVLVEAGDIIPCDGEVIEGGASVDESAITGESAPVIRESGGDFASVTGGTRILSDWLVIECSVNPGETFLDRMIAMVEGAQRRKTPNEIALTILLIALTIVFLLATATLWPFSAWGGNAVSVTVLVALLVCLIPTTIGGLLSAIGVAGMSRMLGANVIATSGRAVEAAGDVDVLLLDKTGTITLGNRQASEFIPAQGVDEKTLADAAQLASLADETPEGRSIVILAKQRFNLRERDVQSLHATFVPFTAQSRMSGINIDNRMIRKGSVDAIRRHVEANGGHFPTDVDQKVDQVARQGATPLVVVEGSRVLGVIALKDIVKGGIKERFAQLRKMGIKTVMITGDNRLTAAAIAAEAGVDDFLAEATPEAKLALIRQYQAEGRLVAMTGDGTNDAPALAQADVAVAMNSGTQAAKEAGNMVDLDSNPTKLIEVVHIGKQMLMTRGSLTTFSIANDVAKYFAIIPAAFAATYPQLNALNIMCLHSPDSAILSAVIFNALIIVFLIPLALKGVSYKPLTASAMLRRNLWIYGLGGLLVPFIGIKVIDLLLTVCGLV
Km: 150 µM

B2: KdpFABC (nucleotide / vanadate rows, site in KdpB) (Escherichia coli K-12; F232A) (protein)
chain: MSRKQLALFEPTLVVQALKEAVKKLNPQAQWRNPVMFIVWIGSLLTTCISIAMASGAMPGNALFSAAISGWLWITVLFANFAEALAEGRSKAQANSLKGVKKTAFARKLREPKYGAAADKVPADQLRKGDIVLVEAGDIIPCDGEVIEGGASVDESAITGESAPVIRESGGDFASVTGGTRILSDWLVIECSVNPGETFLDRMIAMVEGAQRRKTPNEIALTILLIALTIVALLATATLWPFSAWGGNAVSVTVLVALLVCLIPTTIGGLLSAIGVAGMSRMLGANVIATSGRAVEAAGDVDVLLLDKTGTITLGNRQASEFIPAQGVDEKTLADAAQLASLADETPEGRSIVILAKQRFNLRERDVQSLHATFVPFTAQSRMSGINIDNRMIRKGSVDAIRRHVEANGGHFPTDVDQKVDQVARQGATPLVVVEGSRVLGVIALKDIVKGGIKERFAQLRKMGIKTVMITGDNRLTAAAIAAEAGVDDFLAEATPEAKLALIRQYQAEGRLVAMTGDGTNDAPALAQADVAVAMNSGTQAAKEAGNMVDLDSNPTKLIEVVHIGKQMLMTRGSLTTFSIANDVAKYFAIIPAAFAATYPQLNALNIMCLHSPDSAILSAVIFNALIIVFLIPLALKGVSYKPLTASAMLRRNLWIYGLGGLLVPFIGIKVIDLLLTVCGLV
Km (K+-uncoupled variant): 100 µM
